Assay [1] deals with rFcRn (rat) (UniProt P13599). Kind of assay: BLI Octet screen, pH 6.0. In general terms: In BLI a coated tip is dipped into the sample, and binding shifts an interference pattern.
Target sequence in this assay (P13599 23-298 limits assumed, form in doubt, chain 1 of 2): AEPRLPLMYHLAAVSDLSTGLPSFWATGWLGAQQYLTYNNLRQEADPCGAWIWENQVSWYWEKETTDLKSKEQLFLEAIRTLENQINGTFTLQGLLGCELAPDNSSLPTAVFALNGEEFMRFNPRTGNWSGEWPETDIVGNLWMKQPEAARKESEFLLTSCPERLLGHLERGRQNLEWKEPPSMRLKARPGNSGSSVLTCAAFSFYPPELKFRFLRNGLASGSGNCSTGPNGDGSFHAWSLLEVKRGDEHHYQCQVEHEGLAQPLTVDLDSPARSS
Target sequence in this assay (P07151 21-119 limits assumed, form in doubt, chain 2 of 2, further chain): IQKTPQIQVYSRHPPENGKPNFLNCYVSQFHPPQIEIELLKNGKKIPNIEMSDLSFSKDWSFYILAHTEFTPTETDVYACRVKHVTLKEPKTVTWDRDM
The target in assay [2] is rFcRn (rat) (UniProt P13599). Kind of assay: SPR Biacore, pH 6.0. Background: In SPR one partner is held on a chip, and binding of the other changes the refractive index at the surface.
Target sequence in this assay (P13599 23-298 limits assumed, form in doubt, chain 1 of 2): as the sequence (P13599 23-298 limits assumed, form in doubt, chain 1 of 2) above
Target sequence in this assay (P07151 21-119 limits assumed, form in doubt, chain 2 of 2, further chain): as the sequence (P07151 21-119 limits assumed, form in doubt, chain 2 of 2, further chain) above
In assay [3] the target is biotinylated hFcRn (human) (UniProt P55899). Kind of assay: SPR Biacore, pH 6.0.
Target sequence in this assay (P55899 24-297 limits assumed, form in doubt, chain 1 of 2): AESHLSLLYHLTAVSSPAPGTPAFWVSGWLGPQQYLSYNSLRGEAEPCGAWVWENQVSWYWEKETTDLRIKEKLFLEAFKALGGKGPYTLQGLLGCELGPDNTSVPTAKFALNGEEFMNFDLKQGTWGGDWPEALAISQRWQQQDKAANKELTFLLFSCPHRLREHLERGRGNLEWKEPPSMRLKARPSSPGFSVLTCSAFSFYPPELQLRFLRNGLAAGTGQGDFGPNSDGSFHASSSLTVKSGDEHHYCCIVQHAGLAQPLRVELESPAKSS
Target sequence in this assay (P61769 21-119 limits assumed, form in doubt, chain 2 of 2, further chain): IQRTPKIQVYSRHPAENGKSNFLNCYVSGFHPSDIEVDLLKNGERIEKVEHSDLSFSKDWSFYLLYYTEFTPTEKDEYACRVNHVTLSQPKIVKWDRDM
Assay [4] concerns the target rFcRn (rat) (UniProt P13599). Kind of assay: BLI Octet, pH 6.0, purified antibody.
Target sequence in this assay (P13599 23-298 limits assumed, form in doubt, chain 1 of 2): as the sequence (P13599 23-298 limits assumed, form in doubt, chain 1 of 2) above
Target sequence in this assay (P07151 21-119 limits assumed, form in doubt, chain 2 of 2, further chain): as the sequence (P07151 21-119 limits assumed, form in doubt, chain 2 of 2, further chain) above
The target in assay [5] is rFcRn (rat) (UniProt P13599). Nature of the assay: SPR Biacore, pH 7.4.
Target sequence in this assay (P13599 23-298 limits assumed, form in doubt, chain 1 of 2): as the sequence (P13599 23-298 limits assumed, form in doubt, chain 1 of 2) above
Target sequence in this assay (P07151 21-119 limits assumed, form in doubt, chain 2 of 2, further chain): as the sequence (P07151 21-119 limits assumed, form in doubt, chain 2 of 2, further chain) above
Assay [6] has as its target biotinylated hFcRn (human) (UniProt P55899). Kind of assay: SPR Biacore, pH 7.4.
Target sequence in this assay (P55899 24-297 limits assumed, form in doubt, chain 1 of 2): as the sequence (P55899 24-297 limits assumed, form in doubt, chain 1 of 2) above
Target sequence in this assay (P61769 21-119 limits assumed, form in doubt, chain 2 of 2, further chain): as the sequence (P61769 21-119 limits assumed, form in doubt, chain 2 of 2, further chain) above
For assay [7], the target named is rFcRn (rat) (UniProt P13599). Kind of assay: Biacore SPR, pH 6.0, bivalent fit.
Target sequence in this assay (P13599 23-298, form in doubt, chain 1 of 2): as the sequence (P13599 23-298 limits assumed, form in doubt, chain 1 of 2) above
Target sequence in this assay (P07151 21-119, form in doubt, chain 2 of 2, further chain): as the sequence (P07151 21-119 limits assumed, form in doubt, chain 2 of 2, further chain) above
For assay [8], the target named is biotinylated hFcRn (human) (UniProt P55899). Nature of the assay: Biacore SPR, pH 6.0, bivalent fit.
Target sequence in this assay (P55899 24-297, form in doubt, chain 1 of 2): as the sequence (P55899 24-297 limits assumed, form in doubt, chain 1 of 2) above
Target sequence in this assay (P61769 21-119, form in doubt, chain 2 of 2, further chain): as the sequence (P61769 21-119 limits assumed, form in doubt, chain 2 of 2, further chain) above
Assay [9] shares this target. Nature of the assay: SPR Biacore, pH 6.0. This is another data set of the same source.
Target sequence in this assay (P55899 24-297 limits assumed, form in doubt, chain 1 of 2): as the sequence (P55899 24-297 limits assumed, form in doubt, chain 1 of 2) above
Target sequence in this assay (P61769 21-119 limits assumed, form in doubt, chain 2 of 2, further chain): as the sequence (P61769 21-119 limits assumed, form in doubt, chain 2 of 2, further chain) above
Assay [10] deals with Human CD16a (FcγRIIIa) V158 with C-terminal HPC4 tag (human) (UniProt P08637). Kind of assay: SPR Biacore, captured FcγRIIIa-V158.
Assay [11] has the same target. Kind of assay: SPR Biacore FcγRIIIa.
For assay [12], the target named is rFcRn (rat) (UniProt P13599). Nature of the assay: SPR Biacore, pH 7.4, 1000 nM antibody.
Target sequence in this assay (P13599 23-298 limits assumed, form in doubt, chain 1 of 2): as the sequence (P13599 23-298 limits assumed, form in doubt, chain 1 of 2) above
Target sequence in this assay (P07151 21-119 limits assumed, form in doubt, chain 2 of 2, further chain): as the sequence (P07151 21-119 limits assumed, form in doubt, chain 2 of 2, further chain) above
The target in assay [13] is biotinylated hFcRn (human) (UniProt P55899). Kind of assay: SPR Biacore, pH 7.4, 1000 nM antibody.
Target sequence in this assay (P55899 24-297 limits assumed, form in doubt, chain 1 of 2): as the sequence (P55899 24-297 limits assumed, form in doubt, chain 1 of 2) above
Target sequence in this assay (P61769 21-119 limits assumed, form in doubt, chain 2 of 2, further chain): as the sequence (P61769 21-119 limits assumed, form in doubt, chain 2 of 2, further chain) above

As a reminder, the koff is the rate constant with which the complex falls apart. A higher koff goes with fast dissociation. The kon is a measure of how fast the partners come together.

Chain of Human CD16a (FcγRIIIa) V158 with C-terminal HPC4 tag (human) (P08637 17-208 F176V): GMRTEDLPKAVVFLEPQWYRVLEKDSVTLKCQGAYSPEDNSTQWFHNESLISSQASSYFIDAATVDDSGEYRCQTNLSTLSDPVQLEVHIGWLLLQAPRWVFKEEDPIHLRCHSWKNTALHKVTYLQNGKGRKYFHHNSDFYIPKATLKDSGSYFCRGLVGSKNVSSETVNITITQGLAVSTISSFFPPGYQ

With mAb1 N434F (antibody), the fold slower off-rate vs WT with rFcRn (rat) [1] was > 2 fold. Besides, the Kd with rFcRn (rat) [2] amounted to 0.026 µM; in [3], 0.165 µM; with rFcRn (rat) [7] it was 0.026 µM; in assay [8], 0.165 µM. The koff came out at 0.00336 s⁻¹ with rFcRn (rat) [2]; 0.05 s⁻¹ in assay [3]; 0.00118 s⁻¹ with rFcRn (rat) [4]; 0.0034 s⁻¹ with rFcRn (rat) [7]; 0.05 s⁻¹ in assay [8]. The kon in the assay with rFcRn (rat) [2] is 126000 M⁻¹ s⁻¹; in [3], 354000 M⁻¹ s⁻¹; in the assay with rFcRn (rat) [7] it was 126000 M⁻¹ s⁻¹; in [8], 350000 M⁻¹ s⁻¹; in [9] it was 350000 M⁻¹ s⁻¹. Moreover, the Steady State RU with rFcRn (rat) [5] was determined as 61.5 RU; in [6], 22.2 RU; with rFcRn (rat) [12] it was 54.9 RU; in assay [13], 20.1 RU. For the same substance, the FcγRIIIa V158 Affinity Fold Change (relative to WT) in assay [10] worked out at 1.16 fold. In [11], the % enhanced binding vs WT was 16 to 40%.

The values above are taken from US20190263934A1.
